Molecular target: the molecule itself
Assay: SEC; Superdex 200 10/300 GL, 0.5 mg in 500 μl loaded, 5 mM MOPS pH 7.5, 100 mM ammonium sulfate, 1 mM DTT; calibrated with standard proteins

B1: IALB_1185 protein from Ignavibacterium album (IaSGT), wild type, recombinant (enzyme)
chain: MKPHNSEKYFVKNGQPHFLISGEVHYFRINPKLWRNHLQLLKQTGADTVSTYIPWDWHEIEEDDFDFEGKTHPARNLIRFIKLCKEENLDLIVKPGPYILAEYENQGLPSWLLKKLSKNAFALDENGNVISPDLVSYLSDEFLEYTFKWYDKVMPIISKHQKEHYGPITMMQLCNEIGVFQWLSGKSDYNPKVINLYKEFIIQRYKTIEKLNSVYSTNYNSFDDLKAPSGKIKLRSDYCAYFDFHLFFREYYNKYISILKNKIRSFGINIKLTHNIPGWIYGNASELPMLISTYSEIMKNHPDIIFGLDHIPEFVSFRNAHSDLACNKILEAMQPEAPVWAAEFQAGTREHHVKAYAKDLETFYIASLAHGIKGFNYYMFSQGINPEGKGFYGKTFYFQTALDAASNKLALYDSIKKVNRFIRKEQKDLLRTNVNSEICVGFYKPYFFTELISSQLLKEKKLNVEELGLYIDPRFLREEILFNGLLRGLQTLNYNYDVVDLENCDLKSLTAYKQLWITSAEFMDAETQNLLSEFVLNGGNLILYPAVPTLDNYLNRCEILKNNFGIEFITKDSSHKVSAFGIEDVFTAFSKKQIYNDTNSKPIAFTQENEICGIRKKIGKGELTILGFAFGYTSDEHLELIDKLVKLNKIKRELFVSDKDIQFVVRENNKSRYIFFLNYHNERKTFNYRKSSELKKKKSEEISIAPFSYKVIKENK
notes: IALB_1185 protein (GH35), Ignavibacterium album DSM19864, gene ialb_1185 amplified from genomic DNA and inserted into the NdeI and XhoI sites of pET30a(+); domains in the structure: TIM barrel 6-432, Rossmann fold 438-648, Ig-like 653-716; theoretical molecular mass of the recombinant protein 84,709.883; Surmise: cloning into NdeI/XhoI of pET30a(+) would give a C-terminal His6 tag; A …
- stoichiometry N: 2

Reference: PMC8861115, “Characterization and structural analyses of a novel glycosyltransferase acting on the β-1,2-glucosidic linkages” (The Journal of Biological Chemistry, 2022)
